From patent publication US20200277350A1 (DINGFU BIOTARGET, published 2020) come the findings set out here.

For the test, the target named is T1, Human IL10R1 (R&D, 9100-R1-050) (human, UniProt Q13651 22-235).
T1 construct: Bought protein coated on the ELISA plate; also called hIL10R1; human IL10R1 proteins
T1 sequence (looked up): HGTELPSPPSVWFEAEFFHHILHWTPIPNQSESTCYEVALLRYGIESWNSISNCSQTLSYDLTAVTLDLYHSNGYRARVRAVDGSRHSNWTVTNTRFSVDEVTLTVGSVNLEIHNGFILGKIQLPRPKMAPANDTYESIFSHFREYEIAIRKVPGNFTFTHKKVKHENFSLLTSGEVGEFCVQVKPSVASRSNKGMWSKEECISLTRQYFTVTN
Description: ELISA, plate coated with human IL10R1, detection with goat anti-hIgG-HRP.
Description: Human IL10R1 (R&D, 9100-R1-050) was diluted to 5 μg/mL with coating buffer (50 mM Na₂CO₃, NaHCO₃ pH 9.6), 100 μL/well, overnight at 4° C. After washing, the plates were sealed with 3% BSA-PBS for 1 h at 37° C. Then, all samples were respectively diluted from 10000 ng/mL and were diluted 3-fold to a total of 11 concentrations, with the diluent (1% BSA-PBS) as a control, incubated at 37° C. for 2 h. After washing, Goat anti-hIgG-HRP (Sigma, A0170) was added and incubated at 37° C. for 1 h. The soluble one-component TMB substrate developing solution was added, and the developing was performed in dark at room temperature for 5-10 min. 2 N H₂SO₄ 50 μL/well was added to terminate the color development reaction.

B1: Reverse-(IL10)2-Fc9 (Fc fusion)
chain 1: EPKSSDKTHTCPPCPAPELLGGPSVFLFPPKPKDTLMISRTPEVTCVVVDVSHEDPEVKFNWYVDGVEVHNAKTKPREEQYNSTYRVVSVLTVLHQDWLNGKEYKCKVSNKALPAPIEKTISKAKGQPREPQVYTLPPSRDELTKNQVSLSCGVKGFYPSDIAVEWESNGQPENNYKTTPPVLDSDGSFKLASKLTVDKSRWQQGNVFSCSVMHEALHNHYTQKSLSLSPGKGGGGSGGGGSGGGGSSPGQGTQSENSCTHFPGNLPNMLRDLRDAFSRVKTFFQMKDQLDNLLLKESLLEDFKGYLGCQALSEMIQFYLEEVMPQAENQDPDIKAHVNSLGENLKTLRLRLRRCHRFLPCENKSKAVEQVKNAFNKLQEKGIYKAMSEFDIFINYIEAYMTMKIRNGGGGSGGGGSGGGGSSPGQGTQSENSCTHFPGNLPNMLRDLRDAFSRVKTFFQMKDQLDNLLLKESLLEDFKGYLGCQALSEMIQFYLEEVMPQAENQDPDIKAHVNSLGENLKTLRLRLRRCHRFLPCENKSKAVEQVKNAFNKLQEKGIYKAMSEFDIFINYIEAYMTMKIRN
chain 2: DKTHTCPPCPAPELLGGPSVFLFPPKPKDTLMISRTPEVTCVVVDVSHENPEVKFNWYVDGVEVHNAKTKPREEQYNSTYRVVSVLTVLHQDWLNGKEYKCKVSNKALPAPIEKTISKAKGQPREPQVYTLPPSRDELTKNQVSLWCLVKGFYPSDIAVEWESNGQPENNYKTTPPVLDSDGSFFLYSALTVDKSRWQQGNVFSCSVMHEALHNHYTQKSLSLSPGK
notes: also called proteinaceous heterodimer of Group C
For orientation: EC50 means the concentration that produces a half-maximal response. Low readings indicate higher potency in that assay, high ones lower potency in that assay. Take B1: a half-maximal response (EC50) required 0.0123 µg/mL.
